“Also recorded” adds a separate entry of the source.
Columns and labels:
[1] = tested on: lung cancer (A549), liver cancer (HepG2), and colon cancer (HCT-116) cells; test: WST-1 cell proliferation assay, transient over-expression in multiple cell lines; assay type: cell-based; conditions: genetic overexpression in multiple cell lines (A549, HepG2, HCT-116); WST-1 48 hours after transfection; vs pcDNA3.1-Myc negative control
Procedure: FIGS. 2A-2C show analysis of cell viability using the WST-1 assay on lung cancer (A549), liver cancer (HepG2), and colon cancer (HCT-116). Cells were transfected with SEQ ID NO: 4538, SEQ ID NO: 5392, and SEQ ID NO: 4335 individually. pcDNA3.1-Myc tagged was used for negative control. After plasmid transfection, cell proliferation was measured 48 hours later using WST-1 assay. Data are presented as the mean±SD of three independent experiments performed in triplicate. FIG. 2A) WST-1 results in HCT-116 cells. Top: low serum, Bottom: High serum. FIG. 2B) WST-1 results in HepG2 cells. Top: low serum, Bottom: High serum. FIG. 2C) WST-1 results in A549 cells. Top: low serum, Bottom: High serum.
Experimental Design: Protein overexpression plasmids encoding Target Proteins or controls were transiently transfected into multiple cell lines. 24 hours later proliferation was measured using WST-1 assay.
(§1) Materials and Methods: Seed the cells of interest into 96-well plate at a density of 4,000 cells per well in 100 μL of cell culture medium. Incubate the cells in a humidified incubator at 37° C. with 5% CO2 for 24 hours. Dilute the Lipofectamine 3000 (Thermo Fisher) in Opti-MEM medium (Thermo Fisher) to a final concentration of 30 μL/mL. […] Measure the absorbance at 450 nm using a microplate reader. A reference wavelength of 650 nm can be used to correct for background absorbance. Calculate the percentage of viable cells in each well by subtracting the absorbance of the blank (medium only) from the absorbance of each well and expressing the results as a percentage of the control group.

[2] = tested on: colon cancer cell line HCT116 cells; test: WST-1 cell proliferation assay, transient over-expression in HCT116; assay type: cell-based; conditions: transient over-expression from pcDNA3.1 plasmid with Lipofectamine 3000 in HCT116; WST-1 48 hours after transfection; high serum conditions; vs control
Procedure: WST-1 assay on HCT-116 to examine their cell viability and growth when transiently over-expressed SEQ ID NO: 5391 using Lipofectamine 3000. After plasmid transfection, cell proliferation was measured 48 hours later using WST-1 assay. Data are presented as the mean±SD of three independent experiments performed in triplicate.
Protein overexpression plasmids encoding Target Proteins or controls were transiently transfected into multiple cell lines. 24 hours later proliferation was measured using WST-1 assay.
as §1, with “Seed” for “Materials and Methods: Seed”

Molecule	proliferation of cells (WST-1 assay) [1]	proliferation of colon cancer cells (WST-1 assay) [2]
SEQ ID NO: 4335: target protein, extracellular transmembrane protein, over-expressed from plasmid (protein, listed as Homo sapiens) MNLNPRLRLQVISFHPHPKALAVTLLPALTQSLCLCMASCVYSGPKGFLFLFFPQTAQEKHMKNIT	significantly increases the proliferation	–
SEQ ID NO: 5392: target protein, extracellular transmembrane protein, over-expressed from plasmid (protein, listed as Homo sapiens) MVEKSHPSSLPTLPQPLNHCPETYMLLSAAPSGASQLLSTLTLFLKKHRMDIRTISLRMLLSHTGKLAL	significantly increases the proliferation	–
SEQ ID NO: 5391: novel, un-annotated target protein (predicted TM protein) carrying a TCGA mutation site, over-expressed from pcDNA3.1 plasmid (protein, listed as Homo sapiens) LLLLIIWVRVTFMSCSTHREGLQLRYSLLKPARPRTHREEETTPDAPPLRAVTLTVKVCGITPEVRETTNPPEETPDASEHLKEQTLDTPSLRTETPRQFAASFLKAVRPRTHQFWTQKDLSRLRKWQAIYEEGRDSKRWSQVL	–	significantly increases the proliferation; also recorded: increases the proliferation of colon cancer cells
SEQ ID NO: 5391_P31L: mutant version of SEQ ID NO: 5391 that contains the TCGA P31L mutation (protein, listed as Homo sapiens) LLLLIIWVRVTFMSCSTHREGLQLRYSLLKLARPRTHREEETTPDAPPLRAVTLTVKVCGITPEVRETTNPPEETPDASEHLKEQTLDTPSLRTETPRQFAASFLKAVRPRTHQFWTQKDLSRLRKWQAIYEEGRDSKRWSQVL	–	effect on proliferation is significantly more pronounced
SEQ ID NO: 4538: target protein, extracellular transmembrane protein, over-expressed from plasmid (protein, listed as Homo sapiens) LARLFLRPRGPRSPIIQFRRVTGAAVASQGAGSLSPALLPLAPSPRPRRAGLRGQGPSGEGYHLTWKKMSSLEKKHSNVIVQNSLNIHNR	significantly increases the proliferation	–
